Measured values taken from the supplement of paper PMC9112550, “Optimization of the antimicrobial peptide Bac7 by deep mutational scanning” (BMC Biology, 2022).

Test system: Escherichia coli TOP10
Test: shrunken log2 fold change of peptide-encoding DNA abundance (4.5 h post-induction vs induction); higher = less antimicrobial activity (less host growth inhibition)
Conditions: time post-induction: 4.5 h; library: site-saturation at positions 5, 18, 19, 20
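Further: peptides expressed intracellularly from a pBAD plasmid library in pooled LB shake-flask culture, induced with 0.3% L-arabinose, DNA abundance read by NGS, three biological replicates, DESeq2 with apeglm shrinkage.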

Sequence | shrunken log2 fold change
RRIRQRPPRLPRPRPRPVKAPRP | 0.198
RRIRWRPPRLPRPRPRPKWEPRP | 0.0855
RRIRCRPPRLPRPRPRPVNYPRP | -0.376
RRIRTRPPRLPRPRPRPAEGPRP | 0.164
RRIRFRPPRLPRPRPRPTPEPRP | 0.189
RRIRRRPPRLPRPRPRPRQTPRP | 0.0881
RRIRKRPPRLPRPRPRPSDDPRP | 0.154
RRIRCRPPRLPRPRPRPTYVPRP | -0.259
RRIRFRPPRLPRPRPRPMAHPRP | 0.0587
RRIRGRPPRLPRPRPRPKKTPRP | 0.181
RRIRFRPPRLPRPRPRPVTHPRP | -0.303
RRIRRRPPRLPRPRPRPCNTPRP | -0.295
RRIRSRPPRLPRPRPRPYECPRP | -0.356
RRIRWRPPRLPRPRPRPVLIPRP | -0.0326
RRIRRRPPRLPRPRPRPYNSPRP | -0.573
RRIRKRPPRLPRPRPRPFLLPRP | -0.399
RRIRYRPPRLPRPRPRPGNNPRP | -0.359
RRIRMRPPRLPRPRPRPAMTPRP | 1.35
RRIRTRPPRLPRPRPRPTPKPRP | 0.283
RRIRLRPPRLPRPRPRPVWTPRP | 0.00633
RRIRCRPPRLPRPRPRPSTHPRP | -0.454
RRIRARPPRLPRPRPRPTYRPRP | 0.0376
RRIRDRPPRLPRPRPRPIVKPRP | 0.0295
RRIRLRPPRLPRPRPRPKFCPRP | -0.0573
RRIRGRPPRLPRPRPRPCIIPRP | 0.191

Sequence | shrunken log2 fold change
RRIRPRPPRLPRPRPRPRSNPRP | -0.247
RRIRTRPPRLPRPRPRPVFDPRP | -0.226
RRIRIRPPRLPRPRPRPPNEPRP | -0.365
RRIRRRPPRLPRPRPRPTYQPRP | 0.112
RRIRDRPPRLPRPRPRPTDRPRP | 0.694
RRIRRRPPRLPRPRPRPWHCPRP | -0.18
RRIRKRPPRLPRPRPRPPRCPRP | 0.578
RRIRERPPRLPRPRPRPRQGPRP | 0.235
RRIRIRPPRLPRPRPRPVSCPRP | -0.0157
RRIRCRPPRLPRPRPRPWNAPRP | -0.129
RRIRTRPPRLPRPRPRPQYIPRP | -0.331
RRIRNRPPRLPRPRPRPYFMPRP | -1.09
RRIRMRPPRLPRPRPRPVQTPRP | 0.0257
RRIRRRPPRLPRPRPRPVTFPRP | 0.00522
RRIRTRPPRLPRPRPRPVVWPRP | 0.617
RRIRDRPPRLPRPRPRPRCRPRP | -0.0929
RRIRARPPRLPRPRPRPNTWPRP | 0.0711
RRIRQRPPRLPRPRPRPRELPRP | 0.0285
RRIRRRPPRLPRPRPRPLQEPRP | 0.019
RRIRCRPPRLPRPRPRPQYLPRP | -0.964
RRIRWRPPRLPRPRPRPRCDPRP | 0.429
RRIRRRPPRLPRPRPRPKVHPRP | 0.153
RRIRNRPPRLPRPRPRPSTAPRP | -0.28
RRIRDRPPRLPRPRPRPGFCPRP | 0.567
RRIRVRPPRLPRPRPRPPTYPRP | -0.432

Sequence | shrunken log2 fold change
RRIRIRPPRLPRPRPRPPFLPRP | -0.0978
RRIRQRPPRLPRPRPRPCTKPRP | 0.00259
RRIRRRPPRLPRPRPRPHTQPRP | 0.573
RRIRVRPPRLPRPRPRPVGHPRP | -0.166
RRIRQRPPRLPRPRPRPLYTPRP | -0.671
RRIRARPPRLPRPRPRPDMWPRP | 0.422
RRIRDRPPRLPRPRPRPTFVPRP | 0.177
RRIRIRPPRLPRPRPRPLLNPRP | -0.731
RRIRERPPRLPRPRPRPWGNPRP | -0.377
RRIRMRPPRLPRPRPRPCCMPRP | -0.167
RRIRKRPPRLPRPRPRPHANPRP | 0.18
RRIRVRPPRLPRPRPRPGEFPRP | 0.119
RRIRKRPPRLPRPRPRPEFWPRP | 0.807
RRIRQRPPRLPRPRPRPDTEPRP | 0.0371
RRIRARPPRLPRPRPRPGYCPRP | -0.012
RRIRCRPPRLPRPRPRPPAMPRP | 0.241
RRIRWRPPRLPRPRPRPPVRPRP | 0.108
RRIRKRPPRLPRPRPRPHPQPRP | 0.223
RRIRWRPPRLPRPRPRPAVEPRP | 0.497
RRIRIRPPRLPRPRPRPAWFPRP | -0.00823
RRIRERPPRLPRPRPRPWMYPRP | -0.508
RRIRMRPPRLPRPRPRPDEGPRP | -0.0141
RRIRQRPPRLPRPRPRPPEEPRP | -0.00674
RRIRQRPPRLPRPRPRPGGWPRP | 0.45
RRIRNRPPRLPRPRPRPCCIPRP | -0.00191

Sequence | shrunken log2 fold change
RRIRVRPPRLPRPRPRPPGLPRP | 0.373
RRIRCRPPRLPRPRPRPCIVPRP | -0.718
RRIRSRPPRLPRPRPRPCTFPRP | -0.401
RRIRNRPPRLPRPRPRPNGCPRP | -0.0605
RRIRRRPPRLPRPRPRPMLCPRP | 0.709
RRIRMRPPRLPRPRPRPCTYPRP | -0.00141
RRIRHRPPRLPRPRPRPKWIPRP | -0.779
RRIRWRPPRLPRPRPRPTAVPRP | 0.415
RRIRYRPPRLPRPRPRPSKNPRP | -0.722
RRIRSRPPRLPRPRPRPDAEPRP | 0.984
RRIRIRPPRLPRPRPRPIDDPRP | 0.0145
RRIRLRPPRLPRPRPRPTEQPRP | 0.0272
RRIRKRPPRLPRPRPRPRIAPRP | 0.599
RRIRMRPPRLPRPRPRPMRTPRP | 0.502
RRIRRRPPRLPRPRPRPDQSPRP | 0.0941
RRIRPRPPRLPRPRPRPQHPPRP | 0.0328
RRIRQRPPRLPRPRPRPGEYPRP | -0.0469
RRIRNRPPRLPRPRPRPNDLPRP | -0.0167
RRIRARPPRLPRPRPRPDRKPRP | 0.0521
RRIRLRPPRLPRPRPRPYCSPRP | -0.00936
RRIRSRPPRLPRPRPRPDCYPRP | -0.374
RRIRFRPPRLPRPRPRPTFCPRP | -0.152
RRIRMRPPRLPRPRPRPCTLPRP | -0.192
RRIRDRPPRLPRPRPRPPECPRP | 0.0841
RRIRQRPPRLPRPRPRPAKFPRP | -0.103

Sequence | shrunken log2 fold change
RRIRKRPPRLPRPRPRPSPIPRP | 0.0333
RRIRSRPPRLPRPRPRPCCKPRP | 0.0569
RRIRTRPPRLPRPRPRPLPCPRP | 0.0112
RRIRIRPPRLPRPRPRPAIQPRP | -0.143
RRIRSRPPRLPRPRPRPDRGPRP | -0.0384
RRIRGRPPRLPRPRPRPNPRPRP | 0.684
RRIRMRPPRLPRPRPRPVDVPRP | -0.163
RRIRERPPRLPRPRPRPCNYPRP | -0.746
RRIRLRPPRLPRPRPRPYCMPRP | -1.34
RRIRPRPPRLPRPRPRPQIPPRP | -0.0392
RRIRTRPPRLPRPRPRPPGTPRP | 0.331
RRIRRRPPRLPRPRPRPYLLPRP | -0.263
RRIRLRPPRLPRPRPRPYRMPRP | -1.54
RRIRQRPPRLPRPRPRPGTEPRP | 0.119
RRIRNRPPRLPRPRPRPYINPRP | -0.801
RRIRWRPPRLPRPRPRPMDAPRP | 0.051
RRIRFRPPRLPRPRPRPNAIPRP | -0.322
RRIRGRPPRLPRPRPRPKANPRP | 0.836
RRIRDRPPRLPRPRPRPFPPPRP | -0.113
RRIRIRPPRLPRPRPRPYAMPRP | -0.411
RRIRMRPPRLPRPRPRPQFRPRP | -0.235
RRIRTRPPRLPRPRPRPYGQPRP | -0.107
RRIRSRPPRLPRPRPRPKDIPRP | -0.828
RRIRSRPPRLPRPRPRPHTCPRP | -0.215
RRIRMRPPRLPRPRPRPEDCPRP | 0.0737

Sequence | shrunken log2 fold change
RRIRMRPPRLPRPRPRPGGDPRP | 1.58
RRIRNRPPRLPRPRPRPCVAPRP | -0.23
RRIRWRPPRLPRPRPRPSLLPRP | 0.0919
RRIRWRPPRLPRPRPRPIIDPRP | 0.0788
RRIRMRPPRLPRPRPRPWTVPRP | -0.248
RRIRERPPRLPRPRPRPIATPRP | 0.221
RRIRARPPRLPRPRPRPKSDPRP | 0.239
RRIRHRPPRLPRPRPRPWVDPRP | 0.0471
RRIRYRPPRLPRPRPRPNWYPRP | -1.48
RRIRHRPPRLPRPRPRPEIDPRP | 0.0729
RRIRHRPPRLPRPRPRPDVQPRP | 0.0591
RRIRNRPPRLPRPRPRPWNSPRP | -0.281
RRIRQRPPRLPRPRPRPMDTPRP | -0.031
RRIRFRPPRLPRPRPRPVYIPRP | -1.22
RRIRLRPPRLPRPRPRPRQAPRP | -0.00965
RRIRRRPPRLPRPRPRPNCAPRP | 0.32
RRIRRRPPRLPRPRPRPIFDPRP | 0.369
RRIRWRPPRLPRPRPRPMSRPRP | 0.063
RRIRFRPPRLPRPRPRPWCTPRP | -0.288
RRIRFRPPRLPRPRPRPLSEPRP | -0.22
RRIRTRPPRLPRPRPRPPTRPRP | 0.663
RRIRKRPPRLPRPRPRPHDGPRP | 0.0431
RRIRGRPPRLPRPRPRPDFKPRP | 0.386
RRIRHRPPRLPRPRPRPAGVPRP | 0.141
RRIRFRPPRLPRPRPRPLEKPRP | -0.14
